{
  "source": "patent US12618828B2",
  "about": "“Probe and method for detecting membrane-associated molecules in living cells” (priority 2021, dated 2026)",
  "format_in_all_cases": "cell-based",
  "key": {"GβGγ dimer": {"biological_target": "T1, GβGγ dimer (Homo sapiens, UniProt P59768+P62873)", "T1 construct": "expressed in transfected cells; host or cells: HEK293", "T1 sequence (P62873 2-340 limits assumed)": "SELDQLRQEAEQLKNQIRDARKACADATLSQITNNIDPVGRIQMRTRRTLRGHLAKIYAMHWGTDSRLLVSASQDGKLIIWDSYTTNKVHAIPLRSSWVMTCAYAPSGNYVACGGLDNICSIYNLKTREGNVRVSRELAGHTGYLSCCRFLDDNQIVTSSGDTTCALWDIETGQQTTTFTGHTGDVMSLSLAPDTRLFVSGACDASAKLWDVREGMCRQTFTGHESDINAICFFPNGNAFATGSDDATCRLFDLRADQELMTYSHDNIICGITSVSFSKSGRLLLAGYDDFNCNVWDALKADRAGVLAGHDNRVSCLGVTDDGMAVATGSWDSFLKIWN", "T1 sequence (P59768 2-68 limits assumed)": "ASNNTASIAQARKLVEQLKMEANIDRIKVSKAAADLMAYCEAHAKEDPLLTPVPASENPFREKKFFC", "assay": "Polarization microscopy of probe in HEK293 cells, with or without cotransfected GβGγ dimer", "details": "cotransfection of plasmids encoding the, excitation polarization resolved single-photon confocal microscopy", "method": "(§1) Prior to microscopy observations, mammalian cells (HEK293) were cultured at 37° C. under an atmosphere of 95% air, 5% CO2, in Dulbecco's modified Eagle's medium with Glutamax I and high glucose (Life Technologies), supplemented with 10% fetal bovine serum. Cells were plated on 8-chamber microscopy slides (p-Slides, Ibidi GmbH, Germany). Transfections were carried out using 0.2 μg of plasmid DNA and Lipofectamine 2000 (Life Technologies), according to the protocol of the manufacturer. In cotransfections, 0.2 μg of each of the plasmids were used. Microscopy experiments were carried out 48 h after transfection. […]\n(§2) In excitation polarization resolved single-photon laser scanning confocal microscopy, the cells (in the multi-well cover slip) were observed using a single-photon laser scanning confocal microscope Olympus FV1200, modified for excitation-polarization resolved microscopy. […] Fluorescence of wavelengths in the range of 510-610 nm was separated from the excitation light by a long-pass dichroic mirror (DM405/488, Olympus, Japan), diffractive grating, and an adjustable slit, and detected by a photomultiplier. […]\n(§3) The resulting images were deconvolved and quantitatively analyzed by following published procedures (Bondar A & al., Communications Biology. 2021 Feb. 12; 4(1):1-2.) that rely on publicly available software tools. […]"}, "[1]": {"biological_target": "T2, activated form of the β2-adrenergic receptor (Homo sapiens, UniProt P07550, E27Q/G16R)", "T2 construct": "expressed in transfected cells; host or cells: HEK293", "assay": "Polarization microscopy of probe in HEK293 cells, β2-adrenergic receptor activated by norepinephrine", "details": "cotransfection of β2-adrenergic receptor plasmid and 10 μM norepinephrine, excitation polarization resolved single-photon confocal microscopy", "method": "as §1, §2, §3"}, "[2]": {"biological_target": "T3, activated form of the small GTPase Rac1 (Rac1(Q61L)) (Homo sapiens, UniProt P63000, Q61L)", "T3 construct": "expressed in transfected cells; host or cells: HEK293", "assay": "Polarization microscopy of probe in HEK293 cells, with or without cotransfected Rac1(Q61L)", "details": "cotransfection of Rac1(Q61L) plasmid, excitation polarization resolved single-photon confocal microscopy", "method": "as §1, §2, §3"}, "[3]": {"biological_target": "T4, activated form of the G-protein Gαi1 (Gαi1(Q204L)) (Homo sapiens, UniProt P63096, Q204L)", "T4 construct": "expressed in transfected cells; host or cells: HEK293", "T4 sequence (P63096 whole entry Q204L, the tested form may be a part)": "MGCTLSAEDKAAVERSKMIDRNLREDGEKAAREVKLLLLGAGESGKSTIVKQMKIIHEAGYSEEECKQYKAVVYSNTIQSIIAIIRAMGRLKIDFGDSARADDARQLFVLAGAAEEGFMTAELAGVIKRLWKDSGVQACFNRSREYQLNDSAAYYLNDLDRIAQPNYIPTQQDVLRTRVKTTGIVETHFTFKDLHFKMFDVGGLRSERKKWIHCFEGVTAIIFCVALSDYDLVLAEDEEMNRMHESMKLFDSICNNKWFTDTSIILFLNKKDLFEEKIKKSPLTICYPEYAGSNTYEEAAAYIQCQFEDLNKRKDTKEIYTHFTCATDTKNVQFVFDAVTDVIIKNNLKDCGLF", "assay": "Polarization microscopy of probe in HEK293 cells, with or without cotransfected constitutively activated Gαi1(Q204L)", "details": "cotransfection of Gαi1(Q204L) plasmid", "from_the_text": "A protein (SEQ ID NO:5) that includes as an anchoring moiety a fragment of the protein h-Ras, a flexible peptide linker (amino acid sequence GSGGSGG (SEQ ID NO:1)), a monomeric enhanced green fluorescent protein (meGFP) as a fluorescent moiety, and an affinity binding peptide KB1753 known to bind the activated form of the G-protein Gαi1 (Johnston C A & al., Structure. 2005 Jul. 1; 13(7):1069-80), was encoded into a DNA sequence (SEQ ID NO:6) and cloned into a mammalian expression vector (pcDNA3.1(+)) under the control of the cytomegalovirus (CMV) promoter. The resulting DNA encoding the probe of invention was transfected into HEK293 cells either alone, or along with DNA encoding the target protein of the probe.\nPrior to microscopy observations, mammalian cells (HEK293) were cultured at 37° C. under an atmosphere of 95% air, 5% CO2, in Dulbecco's modified Eagle's medium with Glutamax I and high glucose (Life Technologies), supplemented with 10% fetal bovine serum. Cells were plated on 8-chamber microscopy slides (p-Slides, Ibidi GmbH, Germany). Transfections were carried out using 0.2 μg of plasmid DNA and Lipofectamine 2000 (Life Technologies), according to the protocol of the manufacturer. In cotransfections, 0.2 μg of each of the plasmids were used. Microscopy experiments were carried out 48 h after transfection. Microscopy observations were performed at 37° C., maintained by a heated chamber (iBidi Heating System, iBidi).\nThe cells were observed by excitation polarization resolved single-photon laser scanning confocal microscopy, by excitation polarization resolved two-photon laser scanning microscopy, by excitation polarization resolved single-photon wide-field fluorescence microscopy, and by fluorescence polarization resolved single-photon laser scanning confocal microscopy.\nIn excitation polarization resolved single-photon laser scanning confocal microscopy, the cells (in the multi-well cover slip) were observed using a single-photon laser scanning confocal microscope Olympus FV1200, modified for excitation-polarization resolved microscopy. Specifically, the excitation laser beam was passed through an electrooptical polarization modulator (RPM-2P, Innovative Bioimaging, USA) synchronized with the function of the microscope so that the direction of polarization of the laser light was alternated between horizontal and vertical direction (within the image) between acquisition of individual pixels of the image. In order to observe the probes of invention containing the green fluorescent protein (GFP), 488 nm wavelength was used for excitation. Fluorescence of wavelengths in the range of 510-610 nm was separated from the excitation light by a long-pass dichroic mirror (DM405/488, Olympus, Japan), diffractive grating, and an adjustable slit, and detected by a photomultiplier. The samples were imaged by a 40× water immersion lens (UApoN340, NA1.15. Olympus, Japan).\nThe resulting images were deconvolved and quantitatively analyzed by following published procedures (Bondar A & al., Communications Biology. 2021 Feb. 12; 4(1):1-2.) that rely on publicly available software tools. Briefly, an acquired image, containing in different pixels information on fluorescence intensity excited with distinct polarizations of excitation light was deconvolved into two images, each containing fluorescence intensity excited by one polarization of the excitation light. After background subtraction, an image was generated to show, in each pixel, the base 2 logarithm of the ratio between the values of the corresponding pixels of the images containing information on fluorescence intensity excited with a horizontal and vertical polarization of excitation light. The resulting image was segmented to identify parts that correspond to the cell membrane. […]"}, "[4]": {"biological_target": "T5, activated form of the μ-opioid receptor (Homo sapiens, UniProt P35372)", "T5 construct": "expressed in transfected cells; host or cells: HEK293", "assay": "Polarization microscopy of probe in HEK293 cells, μ-opioid receptor activated by DAMGO", "details": "cotransfection of μ-opioid receptor plasmid and 10 μM DAMGO, excitation polarization resolved single-photon confocal microscopy", "method": "as §1, §2, §3"}, "[5]": {"biological_target": "T6, activated form of the insulin receptor 1 (Homo sapiens, UniProt P06213)", "T6 construct": "His tag (named His6); expressed in transfected cells; host or cells: HEK293", "T6 sequence (P06213 with tags, fused parts or gaps isoform P06213-2)": "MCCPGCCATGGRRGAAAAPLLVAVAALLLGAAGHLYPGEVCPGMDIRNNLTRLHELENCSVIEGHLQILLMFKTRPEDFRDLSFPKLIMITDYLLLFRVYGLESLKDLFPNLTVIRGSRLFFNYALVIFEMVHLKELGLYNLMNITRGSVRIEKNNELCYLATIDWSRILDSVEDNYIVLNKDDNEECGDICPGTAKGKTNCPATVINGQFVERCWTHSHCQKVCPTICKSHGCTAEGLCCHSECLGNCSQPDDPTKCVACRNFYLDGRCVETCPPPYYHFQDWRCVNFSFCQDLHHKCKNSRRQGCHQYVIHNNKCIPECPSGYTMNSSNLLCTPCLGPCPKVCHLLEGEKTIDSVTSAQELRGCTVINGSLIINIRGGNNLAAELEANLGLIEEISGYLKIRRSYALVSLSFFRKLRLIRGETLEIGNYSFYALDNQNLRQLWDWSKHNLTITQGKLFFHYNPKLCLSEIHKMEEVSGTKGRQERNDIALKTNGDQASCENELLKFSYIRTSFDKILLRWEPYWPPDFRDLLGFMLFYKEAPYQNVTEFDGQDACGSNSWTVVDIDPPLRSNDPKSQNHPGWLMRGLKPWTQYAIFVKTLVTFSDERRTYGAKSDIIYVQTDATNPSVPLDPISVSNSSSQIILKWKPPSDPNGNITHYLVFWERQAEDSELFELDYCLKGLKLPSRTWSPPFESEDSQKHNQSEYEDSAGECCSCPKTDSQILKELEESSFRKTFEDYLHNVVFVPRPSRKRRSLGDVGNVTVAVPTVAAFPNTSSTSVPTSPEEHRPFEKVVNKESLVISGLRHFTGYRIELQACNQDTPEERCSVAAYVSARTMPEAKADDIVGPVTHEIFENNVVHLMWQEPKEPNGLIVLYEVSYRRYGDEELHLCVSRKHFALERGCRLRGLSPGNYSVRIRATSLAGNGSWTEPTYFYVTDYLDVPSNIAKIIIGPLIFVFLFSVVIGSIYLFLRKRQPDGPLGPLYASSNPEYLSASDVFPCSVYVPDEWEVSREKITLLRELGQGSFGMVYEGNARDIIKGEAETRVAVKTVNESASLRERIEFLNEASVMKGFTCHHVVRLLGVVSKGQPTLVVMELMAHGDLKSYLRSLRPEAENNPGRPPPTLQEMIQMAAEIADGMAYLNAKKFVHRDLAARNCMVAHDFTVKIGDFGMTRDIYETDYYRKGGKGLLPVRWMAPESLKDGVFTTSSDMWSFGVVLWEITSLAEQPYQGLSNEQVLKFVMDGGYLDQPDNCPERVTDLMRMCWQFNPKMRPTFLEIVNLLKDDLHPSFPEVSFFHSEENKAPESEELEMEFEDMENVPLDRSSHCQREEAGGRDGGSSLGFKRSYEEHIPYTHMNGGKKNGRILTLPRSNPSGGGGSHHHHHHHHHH", "assay": "Polarization microscopy of probe in HEK293 cells, insulin receptor 1 activated by serum insulin", "details": "cotransfection of insulin receptor 1 plasmid, activated by 5% fetal bovine serum containing natural levels of insulin, excitation polarization resolved single-photon confocal microscopy", "method": "as §1, §2, §3"}, "activated form of Gαi1": {"biological_target": "T7, activated form of Gαi1 (Homo sapiens, UniProt P63096)", "T7 construct": "expressed in transfected cells; host or cells: HEK293", "assay": "Polarization microscopy of probe in HEK293 cells, Gαi1 activated through the α2-adrenergic receptor by norepinephrine", "details": "HEK293 cells cotransfected with Gαi1, Gβ1, Gγ2 and α2-adrenergic receptor; 10 μM norepinephrine; excitation polarization resolved single-photon confocal microscopy", "method": "as §1, §2, §3"}, "[6]": {"system": "activated form of the β2-adrenergic receptor", "assay": "Polarization microscopy of probe in HEK293 cells, β2-adrenergic receptor activated by norepinephrine", "details": "β2-adrenergic receptor is the probe's anchoring moiety, 10 uM norepinephrine, excitation polarization resolved single-photon confocal microscopy", "method": "as §1, §2, §3"}, "[7]": {"biological_target": "T8, activated form of the small GTPase RhoA (RhoA(Q63L)) (Homo sapiens, UniProt P61586, Q63L)", "T8 construct": "expressed in transfected cells; host or cells: HEK293", "T8 sequence (P61586 whole entry Q63L)": "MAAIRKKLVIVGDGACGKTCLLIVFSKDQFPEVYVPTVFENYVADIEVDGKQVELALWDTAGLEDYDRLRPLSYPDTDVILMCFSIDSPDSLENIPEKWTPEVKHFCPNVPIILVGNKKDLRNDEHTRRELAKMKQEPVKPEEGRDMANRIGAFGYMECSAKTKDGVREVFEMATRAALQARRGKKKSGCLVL", "assay": "Polarization microscopy of probe in HEK293 cells, with or without cotransfected RhoA(Q63L)", "details": "cotransfection of RhoA(Q63L) plasmid, excitation polarization resolved single-photon confocal microscopy", "method": "as §1, §2, §3"}, "[8]": {"biological_target": "T9, activated form of the G-protein Gα13 (Gα13(Q226L)) (Homo sapiens, UniProt Q14344, Q226L)", "T9 construct": "expressed in transfected cells; host or cells: HEK293", "T9 sequence (Q14344 1-377 Q226L)": "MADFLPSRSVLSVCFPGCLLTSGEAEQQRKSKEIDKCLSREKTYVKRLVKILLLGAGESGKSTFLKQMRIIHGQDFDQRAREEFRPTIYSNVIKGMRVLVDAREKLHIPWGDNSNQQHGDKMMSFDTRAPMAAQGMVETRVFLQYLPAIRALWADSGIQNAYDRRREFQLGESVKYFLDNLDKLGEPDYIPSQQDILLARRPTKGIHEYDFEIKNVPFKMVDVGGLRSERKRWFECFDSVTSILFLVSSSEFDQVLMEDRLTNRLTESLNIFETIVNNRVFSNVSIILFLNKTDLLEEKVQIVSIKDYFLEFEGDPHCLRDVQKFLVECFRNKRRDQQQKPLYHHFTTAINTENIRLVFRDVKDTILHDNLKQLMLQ", "assay": "Polarization microscopy of probe in HEK293 cells, with or without cotransfected Gα13(Q226L)", "details": "cotransfection of Gα13(Q226L) plasmid, excitation polarization resolved single-photon confocal microscopy", "method": "as §1, §2, §3"}, "[9]": {"details": "excitation polarization resolved single-photon laser scanning confocal microscopy"}},
  "data": [
    {"substance": "GAP43-SSGSSGTG-meGFP-GRK2ct [Example 17]", "values": [
      {"measurement": "linear dichroism of the fluorescent moiety of the probe in presence of its target molecule compared with absence", "setting": "GβGγ dimer", "value": "statistically significantly lower"}
    ]},
    {"substance": "NB80-meGFP-GSGGSGG-hRas [Example 13]", "values": [
      {"measurement": "linear dichroism of the fluorescent moiety of the probe in presence of its target molecule compared with absence", "setting": "[1]", "value": "statistically significantly lower"}
    ]},
    {"substance": "GAP43-SSGSSGTG-meGFP-Δ6-PAK1 [Example 21]", "values": [
      {"measurement": "linear dichroism of the fluorescent moiety of the probe in presence of its target molecule compared with absence", "setting": "[2]", "value": "statistically significantly lower"}
    ]},
    {"substance": "KB1753-meGFP-GSGGSGG-kRas [Example 3]", "values": [
      {"measurement": "linear dichroism of the fluorescent moiety of the probe in presence of its target molecule compared with absence", "setting": "[3]; [9]", "value": "statistically significantly higher"}
    ]},
    {"substance": "NB33-meGFP-GSGGSGG-hRas [Example 15]", "values": [
      {"measurement": "linear dichroism of the fluorescent moiety of the probe in presence of its target molecule compared with absence", "setting": "[4]", "value": "statistically significantly lower"}
    ]},
    {"substance": "KB1753-cpmTurquoise2-GSGGSGG-hRas [Example 9]", "values": [
      {"measurement": "linear dichroism of the fluorescent moiety of the probe in presence of its target molecule compared with absence", "setting": "[3]; [9]", "value": "statistically significantly higher"}
    ]},
    {"substance": "GAP43-SSGSSGTG-meGFP-IRS1 [Example 22]", "values": [
      {"measurement": "linear dichroism of the fluorescent moiety of the probe in presence of its target molecule compared with absence", "setting": "[5]", "value": "statistically significantly lower"}
    ]},
    {"substance": "KB1753-meGFP-GSGGSGG-hRas [Example 1]", "values": [
      {"measurement": "linear dichroism of the fluorescent moiety of the probe in presence of its target molecule compared with absence", "setting": "[3]; excitation polarization resolved single-photon confocal, two-photon and wide-field microscopy, FIG. 2A", "value": "statistically significantly higher"},
      {"measurement": "fluorescence polarization of the fluorescent moiety of the probe in presence of its target molecule compared with absence", "setting": "[3]; fluorescence polarization resolved single-photon laser scanning confocal microscopy, FIG. 2A", "value": "statistically significantly higher"},
      {"measurement": "linear dichroism of the fluorescent moiety of the probe in presence of activated Gαi1 compared with absence", "setting": "activated form of Gαi1", "value": "statistically significantly higher"}
    ]},
    {"substance": "GAP43-SSGSSGTG-meGFP-KB1753 [Example 4]", "values": [
      {"measurement": "linear dichroism of the fluorescent moiety of the probe in presence of its target molecule compared with absence", "setting": "[3]; [9]", "value": "statistically significantly higher"}
    ]},
    {"substance": "β2AR-SSGSSGTG-meGFP-NB80 [Example 14]", "values": [
      {"measurement": "linear dichroism of the fluorescent moiety of the probe in presence of its target molecule compared with absence", "setting": "[6]", "value": "statistically significantly higher"}
    ]},
    {"substance": "rhotekin-meGFP-GSGGSGG-hRas [Example 20]", "values": [
      {"measurement": "linear dichroism of the fluorescent moiety of the probe in presence of its target molecule compared with absence", "setting": "[7]", "value": "statistically significantly higher"}
    ]},
    {"substance": "KB1753-meGFP-GS24-hRas [Example 6]", "values": [
      {"measurement": "linear dichroism of the fluorescent moiety of the probe in presence of its target molecule compared with absence", "setting": "[3]; [9]", "value": "statistically significantly higher"}
    ]},
    {"substance": "GAP43-SSGSSGTG-meGFP-NB33 [Example 16]", "values": [
      {"measurement": "linear dichroism of the fluorescent moiety of the probe in presence of its target molecule compared with absence", "setting": "[4]", "value": "statistically significantly lower"}
    ]},
    {"substance": "GAP43-SSGSSGTG-meGFP-PRGrh [Example 19]", "values": [
      {"measurement": "linear dichroism of the fluorescent moiety of the probe in presence of its target molecule compared with absence", "setting": "[8]", "value": "statistically significantly lower"}
    ]},
    {"substance": "IL4R-SSGSSGTG-meGFP-KB1753 [Example 5]", "values": [
      {"measurement": "linear dichroism of the fluorescent moiety of the probe in presence of its target molecule compared with absence", "setting": "[3]; [9]", "value": "statistically significantly higher"}
    ]}
  ]
}
